Results taken from patent US20160311887A1 (CAMBRIDGE ENTERPRISE, published 2016).

Experiments:
[1] = target: T1, activated Protein C (APC) (human, UniProt P04070 43-197; P04070 212-461); test: ratio of rate constants, APC over fXa
T1 construct: also called human plasma APC
Procedure: (§1) The inhibition of APC was reduced but still considerable, especially for the variants of α₁AT and the PCI variants in the presence of heparin. However, the specificity of PCI and α₁AT Pitts is not limited to thrombin and APC. […] In order not to inhibit coagulation, our variants also need to be specific for APC over fXa. We therefore also determined the rate constants of inhibition of PCI and α₁AT and their variants for fXa (Table 3). Rate constants were measured under pseudo-first-order conditions using an excess of serpin over protease. Serpin and protease were incubated together for varying lengths of time and the residual activity determined by adding an excess of chromogenic substrate (S2222) for the protease. Plots of residual protease activity over time gave the observed rate constant kobs. The second-order rate constant, k₂, is the slope of the plot of kobs versus serpin concentration (fitted using a linear regression model). Standard errors of the slope are shown (Table 3).

[2] = target: T1, activated Protein C (APC); test: ratio of rate constants, APC over fXIa
Procedure: APC inhibition is shown for comparison (from Table 1). Standard errors are shown.
In addition we wanted to determine whether FL α₁AT Pitts C232S P2KP1′K affected the intrinsic (contact activation) pathway. Second-order rate constants of inhibition of fXIa by FL α₁AT Pitts C232S and the P2KP1′K variant were measured under pseudo first-order conditions using an excess of serpin over protease. Serpin and protease were incubated together for varying lengths of time and the residual activity determined by adding an excess of chromogenic substrate for the protease (S2366). Plots of residual protease activity over time gave the observed rate constant kobs. The second-order rate constant, k₂, is the slope of the plot of kobs versus serpin concentration (fitted using a linear regression model). Standard errors of the slope are given.

[3] = target: T1, activated Protein C (APC); test: ratio of rate constants, APC over fXa (repeated from Table 3)
Procedure: as §1

[4] = target: T1, activated Protein C (APC); test: pseudo-first-order inhibition kinetics (repeated from Table 1)
Procedure: (§2) Rate constants of thrombin and APC inhibition were measured under pseudo-first-order conditions using an excess of serpin over protease (Table 1). Serpin and protease were incubated together for varying lengths of time and the residual activity was determined by adding an excess of chromogenic substrate for the protease (S2238 for thrombin and […] for APC). Residual protease activity was then measured by following the absorbance at 405 nm. Plots of residual protease activity over time gave the observed rate constant kobs. The second-order rate constant, ₖ₂, is the slope of the plot of kobs versus serpin concentration (fitted using a linear regression model). Standard errors of the slope are shown.

[5] = target: T1, activated Protein C (APC); test: pseudo-first-order inhibition kinetics, residual chromogenic activity
Procedure: as §2

thrombin = thrombin (UniProt P00734 328-622); test: pseudo-first-order inhibition kinetics, residual chromogenic activity (S2238)
Procedure: as §2

fXa = target: T2, fXa (UniProt P00742 41-179; P00742 235-488); test: pseudo-first-order inhibition kinetics, residual chromogenic activity (S2222)
T2 construct: also called factor Xa
T2 sequence (P00742 41-179 limits assumed, form in doubt, chain 1 of 2): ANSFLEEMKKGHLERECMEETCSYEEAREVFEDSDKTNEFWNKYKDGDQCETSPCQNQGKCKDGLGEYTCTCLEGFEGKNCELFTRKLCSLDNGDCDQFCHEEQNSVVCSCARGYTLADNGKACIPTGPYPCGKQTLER
T2 sequence (P00742 235-488 limits assumed, form in doubt, chain 2 of 2): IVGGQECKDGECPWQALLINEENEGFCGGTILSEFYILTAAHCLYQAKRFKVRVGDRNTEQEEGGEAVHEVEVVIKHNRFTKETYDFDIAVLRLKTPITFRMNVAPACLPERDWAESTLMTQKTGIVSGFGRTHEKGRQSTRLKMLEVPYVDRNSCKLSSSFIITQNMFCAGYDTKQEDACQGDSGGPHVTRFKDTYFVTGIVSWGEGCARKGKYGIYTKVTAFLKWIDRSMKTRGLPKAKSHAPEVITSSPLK
Procedure: as §1

T1 sequence (P04070 43-197, chain 1 of 2): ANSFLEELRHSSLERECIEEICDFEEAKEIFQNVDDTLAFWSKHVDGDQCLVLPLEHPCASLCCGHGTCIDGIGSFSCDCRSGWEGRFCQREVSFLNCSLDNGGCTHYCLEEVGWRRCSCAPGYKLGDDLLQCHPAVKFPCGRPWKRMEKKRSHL
T1 sequence (P04070 212-461, chain 2 of 2): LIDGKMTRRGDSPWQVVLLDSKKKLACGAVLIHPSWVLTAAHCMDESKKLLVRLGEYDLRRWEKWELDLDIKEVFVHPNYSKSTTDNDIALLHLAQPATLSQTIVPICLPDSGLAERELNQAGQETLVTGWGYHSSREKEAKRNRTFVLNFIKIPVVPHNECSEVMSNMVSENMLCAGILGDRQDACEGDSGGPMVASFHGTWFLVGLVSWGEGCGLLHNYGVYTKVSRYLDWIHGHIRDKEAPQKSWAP

fold inhibition APC/fXa [1]: 126 fold | inhibition of APC/fXIa [2]: 32.2 fold | inhibition of APC/fXa [3]: 126 fold | second-order rate constant of inhibition [4]: 15.1 mM⁻¹ s⁻¹ | second-order rate constant of inhibition [5]: 15.1 mM⁻¹ s⁻¹ | binding result (thrombin): no binding (tested: 4 h) | second-order rate constant of inhibition (fXa): 0.12 mM⁻¹ s⁻¹
B1: FL α1AT Pitts C232S P2KP1′K (other)
chain: SDPQGDAAQKTDTSHHDQDHPTFNKITPNLAEFAFSLYRQLAHQSNSTNIFFSPVSIATAFAMLSLGTKADTHDEILEGLNFNLTEIPEAQIHEGFQELLRTLNQPDSQLQLTTGNGLFLSEGLKLVDKFLEDVKKLYHSEAFTVNFGDTEEAKKQINDYVEKGTQGKIVDLVKELDRDTVFALVNYIFFKGKWERPFEVKDTEEEDFHVDQVTTVKVPMMKRLGMFNIQHSKKLSSWVLLMKYLGNATAIFFLPDEGKLQHLENELTHDIITKFLENEDRRSASLHLPKLSITGTYDLKSVLGQLGITKVFSNGADLSGVTEEAPLKLSKAVHKAVLTIDEKGTEAAGAMFLEAIKRKIPPEVKFNKPFVFLMIEQNTKSPLFMGKVVNPTQK
notes: E. coli, SUMO tag removed; also called P2KP1′K α1AT; P2KP1′K mutant of α1AT Pitts
